Reference: publication doi:10.1101/2020.08.19.257774 (bioRxiv, 2020)

How the values were obtained:
[1] = target: the molecule itself; experiment: negative stain EM
[2] = target: the molecule itself; experiment: cryo-EM structure

Row | Protein | binding result [1] | binding result [2]
1 | Synechocystis LPOR (enzyme, UniProt Q59987 1-322, looked up) MEQPMKPTVIITGASSGVGLYGAKALIDKGWHVIMACRNLDKTQKVADELGFPKDSYTIIKLDLGYLDSVRRFVAQFRELGRPLKALVCNAAVYFPLLDEPLWSADDYELSVATNHLGHFLLCNLLLEDLKACPDADKRLIILGTVTANSKELGGKIPIPAPPDLGNFEGFEAGFKKPIAMINNKKFKSGKAYKDSKLCNMLTTRELHRRFHQETGIVFNSLYPGCVADTPLFRNHYSLFRTIFPWFQKNVTKGYVSQELAGERVAMVVADDKFKDSGVHWSWGNRQQAGREAFVQELSEQGSDAQKAQRMWDLSEKLVGLV | binds | 
2 | A. thaliana Light-dependent Protochlorophyllide OxidoReductase isoform B (AtPORB) (enzyme) QTAATSSPTVTKSVDGKKTLRKGNVVVTGASSGLGLATAKALAETGKWNVIMACRDFLKAERAAKSVGMPKDSYTVMHLDLASLDSVRQFVDNFRRTETPLDVLVCNAAVYFPTAKEPTYSAEGFELSVATNHLGHFLLARLLLDDLKKSDYPSKRLIIVGSITGNTNTLAGNVPPKANLGDLRGLAGGLNGLNSSAMIDGGDFDGAKAYKDSKVCNMLTMQEFHRRFHEETGVTFASLYPGCIASTGLFREHIPLFRALFPPFQKYITKGYVSETESGKRLAQVVSDPSLTKSGVYWSWNNASASFENQLSEEASDVEKARKVWEISEKLVGLA |  | binds
